Data from patent US20140030270A1.
Values belong to the binder of their own block, whether it stands above or below them.

Experiments:
[1] = target: cynomolgus monkey PCSK9, V5-6xHIS tagged (cynomolgus monkey); test: KinExA solution equilibrium, PCSK9-coated beads; cyno PCSK9
[2] = target: cynomolgus monkey PCSK9, V5-6xHIS tagged (cynomolgus monkey); test: SPR (Biacore 2000), antibody amine-coupled to the chip, PCSK9 as analyte, pH 7.4
[3] = target: cynomolgus monkey PCSK9, V5-6xHIS tagged (cynomolgus monkey); test: Biacore solution equilibrium assay, free PCSK9 measured on immobilised 21B12

- Kd [1]: 0.016 nM
- Kd [2]: 0.87 nM
B1: 16F12 IgG4 (16F12, anti-PCSK9 huIgG4) (antibody, V domains shown)
VH: QVHLVESGGGVVQPGRSLRLSCAASGFTFNSFGMHWVRQAPGKGLEWVALIWSDGSDEYYADSVKGRFTISRDNSKNTLYLQMNSLRAEDTAVYYCARAIAALYYYYGMDVWGQGTTVTVSS
VL: QSVLTQPPSVSAAPGQKVTISCSGSSSNIGNNFVSWYQQLPGTAPKLLIYDYNKRPSGIPDRFSGSKSGTSATLGITGLQTGDEADYYCGTWDSSLSAYVFGTGTRVTVLQ

- Kd [3]: 0.011 nM
- Kd [2]: 0.36 nM
B2: 21B12 IgG4 (21B12, anti-PCSK9 huIgG4) (antibody, V domains shown)
VH: QVQLVQSGAEVKKPGASVKVSCKASGYTLTSYGISWVRQAPGQGLEWMGWVSFYNGNTNYAQKLQGRGTMTTDPSTSTAYMELRSLRSDDTAVYYCARGYGMDVWGQGTTVTVSS
VL: QSALTQPASVSGSPGQSITISCTGTSSDVGGYNSVSWYQQHPGKAPKLMIYEVSNRPSGVSNRFSGSKSGNTASLTISGLQAEDEADYYCNSYTSTSMVFGGGTKLTVLQ
